Key:
HeLa Kyoto [1] = assay: solubility in G1/S (NP-40 vs SDS abundance) (log2 ratio); higher = more soluble; conditions: cell cycle stage: G1/S
HeLa Kyoto [2] = assay: solubility change mitosis vs G1/S (difference of NP-40 vs SDS log2 ratios) (log2 ratio difference); higher = more soluble in mitosis
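Throughout, for solubility change mitosis vs G1/S (difference of NP-40 vs SDS log2 ratios): synchronized HeLa Kyoto cells (double thymidine block for G1/S, nocodazole release for mitosis), protein amounts in NP-40 versus SDS lysates quantified by mass spectrometry, three biological replicates.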
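Throughout, for solubility in G1/S (NP-40 vs SDS abundance): HeLa Kyoto cells arrested at G1/S by double thymidine block, proteins quantified by TMT10plex mass spectrometry in mild NP-40 versus SDS extracts, three biological replicates.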

Substance | solubility in G1/S (log2) (HeLa Kyoto [1]) | solubility change mitosis (log2) (HeLa Kyoto [2])
MDPQPPPPAQGSPPHRGRGRGRGRGRGRGRGRGRGGAGAPRAPLPCPTCGRLFRFPYYLSRHRLSHSGLRPHACPLCPKAFRRPAHLSRHLRGHGPQPPLRCAACPRTFPEPAQLRRHLAQEHAGGEVELAIERVAKETAEPSWGPQDEGSEPPTTAAAGATEEEAVAAWPETWPAGEPSTLAAPTSAAEPRESESEEAEAGAAELRAELALAAGRQEEKQVLLQADWTLLCLRCREAFATKGELKAHPCLRPEGEQEGEGGPPPRPKRHQCSICLKAFARPWSLSRHRLVHSTDRPFVCPDCGLAFRLASYLRQHRRVHGPLSLLAPLPAAGKKDDKASGARNSAKGPEGGEGAECGGASEGGEGQNGGDAAPARPPAGEPRFWCPECGKGFRRRAHLRQHGVTHSGARPFQCVRCQREFKRLADLARHAQVHAGGPAPHPCPRCPRRFSRAYSLLRHQRCHRAELERAAALQALQAQAPTSPPPPPPPLKAEQEEEGLPLPLANIKEEPPSPGTPPQSPPAPPVFLSASCFDSQDHSAFEMEEEEVDSKAHLRGLGGLAS [ZNF579] | -0.0421 | 0.288
MGHPPLEFSDCYLDSPDFRERLKCYEQELERTNKFIKDVIKDGNALISAMRNYSSAVQKFSQTLQSFQFDFIGDTLTDDEINIAESFKEFAELLNEVENERMMMVHNASDLLIKPLENFRKEQIGFTKERKKKFEKDGERFYSLLDRHLHLSSKKKESQLQEADLQVDKERHNFFESSLDYVYQIQEVQESKKFNIVEPVLAFLHSLFISNSLTVELTQDFLPYKQQLQLSLQNTRNHFSSTREEMEELKKRMKEAPQTCKLPGQPTIEGYLYTQEKWALGISWVKYYCQYEKETKTLTMTPMEQKPGAKQGPLDLTLKYCVRRKTESIDKRFCFDIETNERPGTITLQALSEANRRLWMEAMDGKEPIYHSPITKQQEMELNEVGFKFVRKCINIIETKGIKTEGLYRTVGSNIQVQKLLNAFFDPKCPGDVDFHNSDWDIKTITSSLKFYLRNLSEPVMTYRLHKELVSAAKSDNLDYRLGAIHSLVYKLPEKNREMLELLIRHLVNVCEHSKENLMTPSNMGVIFGPTLMRAQEDTVAAMMNIKFQNIVVEILIEHFGKIYLGPPEESAAPPVPPPRVTARRHKPITISKRLLRERTVFYTSSLDESEDEIQHQTPNGTITSSIEPPKPPQHPKLPIQRSGETDPGRKSPSRPILDGKLEPCPEVDVGKLVSRLQDGGTKITPKATNGPMPGSGPTKTPSFHIKRPAPRPLAHHKEGDADSFSKVRPPGEKPTIIRPPVRPPDPPCRAATPQKPEPKPDIVAGNAGEITSSVVASRTRFFETASRKTGSSQGRLPGDES [OPHN1] | -0.348 | -0.0995
MDPRVAWIQPEQKGPANALWMQIWETSQGVGRGGSGFASYFCLNSPALDTAAAAGAAGRGSGGLGPALPAASPPPPGPTAPAALPPALLTALGPAAEGARRLHKSPSLSSSSSSSSSNAESGTESPGCSSSSSSSASLGRPGGGRGGAFFNFADGAPSAPGTANGHPGPRGPAPAGSPSQHQFHPGRRKRENKASTYGLNYLLSGSRAAALSGGGGPGAQAPRPGTPWKSRAYSPGIQGLHEEIIDFYNFMSPCPEEAAMRREVVKRIETVVKDLWPTADVQIFGSFSTGLYLPTSDIDLVVFGKWERPPLQLLEQALRKHNVAEPCSIKVLDKATVPIIKLTDQETEVKVDISFNMETGVRAAEFIKNYMKKYSLLPYLILVLKQFLLQRDLNEVFTGGISSYSLILMAISFLQLHPRIDARRADENLGMLLVEFFELYGRNFNYLKTGIRIKEGGAYIAKEEIMKAMTSGYRPSMLCIEDPLLPGNDVGRSSYGAMQVKQVFDYAYIVLSHAVSPLARSYPNRDAESTLGRIIKVTQEVIDYRRWIKEKWGSKAHPSPGMDSRIKIKERIATCNGEQTQNREPESPYGQRLTLSLSSPQLLSSGSSASSVSSLSGSDVDSDTPPCTTPSVYQFSLQAPAPLMAGLPTALPMPSGKPQPTTSRTLIMTTNNQTRFTIPPPTLGVAPVPCRQAGVEGTASLKAVHHMSSPAIPSASPNPLSSPHLYHKQHNGMKLSMKGSHGHTQGGGYSSVGSGGVRPPVGNRGHHQYNRTGWRRKKHTHTRDSLPVSLSR [PAPD7] | -0.21 | 0.0856
MEGVELKEEWQDEDFPIPLPEDDSIEADILAITGPEDQPGSLEVNGNKVRKKLMAPDISLTLDPSDGSVLSDDLDESGEIDLDGLDTPSENSNEFEWEDDLPKPKTTEVIRKGSITEYTAAEEKEDGRRWRMFRIGEQDHRVDMKAIEPYKKVISHGGYYGDGLNAIVVFAVCFMPESSQPNYRYLMDNLFKYVIGTLELLVAENYMIVYLNGATTRRKMPSLGWLRKCYQQIDRRLRKNLKSLIIVHPSWFIRTLLAVTRPFISSKFSQKIRYVFNLAELAELVPMEYVGIPECIKQVDQELNGKQDEPKNEQ [BNIP2] | 0.0256 | -0.366
MAMQEKYPTEGISHVTSPSSDVIQKGSSLGTEWQTPVISEPFRSRFSRCSSVADSGDTAIGTSCSDIAEDFCSSSGSPPFQPIKSHVTIPTAHVMPSTLGTSPAKPNSTPVGPSSSKLPLSGLAESVGMTRNGDLGAMKHSPGLSRDLMYFSGATGENGIEQSWFPAVGHERQEEARKFDIPSMESTLNQSAMMETLYSDPHHRVRFHNPRTSTSKELYRVLPEAKKAPGSGAVFERNGPHSNSSGVLPLGLQPAPGLSKPLPSQVWQPSPDTWHPREQSCELSTCRQQLELIRLQMEQMQLQNGAICHHPAAFGPSLPILEPAQWISILNSNEHLLKEKELLIDKQRKHISQLEQKVRESELQVHSALLGRPAPFGDVCLLRLQELQRENTFLRAQFAQKTEALSREKIDLEKKLSASEVEVQLIRESLKVALQKHSEEVKKQEERVKGRDKHINNLKKKCQKESEQNREKQQRIETLERYLADLPTLEDHQKQSQQLKDSELKSTELQEKVTELESLLEETQAICREKEIQLESLRQREAEFSSAGHSLQDKQSVEETSGEGPEVEMESWQKRYDSLQKIVEKQQQKMDQLRSQVQSLEQEVAQEEGTSQALREEAQRRDSALQQLRTAVKELSVQNQDLIEKNLTLQEHLRQAQPGSPPSPDTAQLALELHQELASCLQDLQAVCSIVTQRAQGHDPNLSLLLGIHSAQHPETQLDLQKPDVIKRKLEEVQQLRRDIEDLRTTMSDRYAQDMGENCVTQ [CEP85] | 0.35 | -0.194
MRPLDIVELAEPEEVEVLEPEEDFEQFLLPVINEMREDIASLTREHGRAYLRNRSKLWEMDNMLIQIKTQVEASEESALNHLQNPGDAAEGRAAKRCEKAEEKAKEIAKMAEMLVELVRRIEKSESS [MRFAP1] | 0.156 | 0.549
MAASRRSQHHHHHHQQQLQPAPGASAPPPPPPPPLSPGLAPGTTPASPTASGLAPFASPRHGLALPEGDGSRDPPDRPRSPDPVDGTSCCSTTSTICTVAAAPVVPAVSTSSAAGVAPNPAGSGSNNSPSSSSSPTSSSSSSPSSPGSSLAESPEAAGVSSTAPLGPGAAGPGTGVPAVSGALRELLEACRNGDVSRVKRLVDAANVNAKDMAGRKSSPLHFAAGFGRKDVVEHLLQMGANVHARDDGGLIPLHNACSFGHAEVVSLLLCQGADPNARDNWNYTPLHEAAIKGKIDVCIVLLQHGADPNIRNTDGKSALDLADPSAKAVLTGEYKKDELLEAARSGNEEKLMALLTPLNVNCHASDGRKSTPLHLAAGYNRVRIVQLLLQHGADVHAKDKGGLVPLHNACSYGHYEVTELLLKHGACVNAMDLWQFTPLHEAASKNRVEVCSLLLSHGADPTLVNCHGKSAVDMAPTPELRERLTYEFKGHSLLQAAREADLAKVKKTLALEIINFKQPQSHETALHCAVASLHPKRKQVTELLLRKGANVNEKNKDFMTPLHVAAERAHNDVMEVLHKHGAKMNALDTLGQTALHRAALAGHLQTCRLLLSYGSDPSIISLQGFTAAQMGNEAVQQILSESTPIRTSDVDYRLLEASKAGDLETVKQLCSSQNVNCRDLEGRHSTPLHFAAGYNRVSVVEYLLHHGADVHAKDKGGLVPLHNACSYGHYEVAELLVRHGASVNVADLWKFTPLHEAAAKGKYEICKLLLKHGADPTKKNRDGNTPLDLVKEGDTDIQDLLRGDAALLDAAKKGCLARVQKLCTPENINCRDTQGRNSTPLHLAAGYNNLEVAEYLLEHGADVNAQDKGGLIPLHNAASYGHVDIAALLIKYNTCVNATDKWAFTPLHEAAQKGRTQLCALLLAHGADPTMKNQEGQTPLDLATADDIRALLIDAMPPEALPTCFKPQATVVSASLISPASTPSCLSAASSIDNLTGPLAELAVGGASNAGDGAAGTERKEGEVAGLDMNISQFLKSLGLEHLRDIFETEQITLDVLADMGHEELKEIGINAYGHRHKLIKGVERLLGGQQGTNPYLTFHCVNQGTILLDLAPEDKEYQSVEEEMQSTIREHRDGGNAGGIFNRYNVIRIQKVVNKKLRERFCHRQKEVSEENHNHHNERMLFHGSPFINAIIHKGFDERHAYIGGMFGAGIYFAENSSKSNQYVYGIGGGTGCPTHKDRSCYICHRQMLFCRVTLGKSFLQFSTMKMAHAPPGHHSVIGRPSVNGLAYAEYVIYRGEQAYPEYLITYQIMKPEAPSQTATAAEQKT [TNKS] | 0.036 | -0.258
KMT2C | 0.137 | -0.0115
MVRTKADSVPGTYRKVVAARAPRKVLGSSTSATNSTSVSSRKAENKYAGGNPVCVRPTPKWQKGIGEFFRLSPKDSEKENQIPEEAGSSGLGKAKRKACPLQPDHTNDEKE [KIAA0101] | -0.0358 | 0.256
MASESSPLLAYRLLGEEGVALPANGAGGPGGASARKLSTFLGVVVPTVLSMFSIVVFLRIGFVVGHAGLLQALAMLLVAYFILALTVLSVCAIATNGAVQGGGAYFMISRTLGPEVGGSIGLMFYLANVCGCAVSLLGLVESVLDVFGADATGPSGLRVLPQGYGWNLLYGSLLLGLVGGVCTLGAGLYARASFLTFLLVSGSLASVLISFVAVGPRDIRLTPRPGPNGSSLPPRFGHFTGFNSSTLKDNLGAGYAEDYTTGAVMNFASVFAVLFNGCTGIMAGANMSGELKDPSRAIPLGTIVAVAYTFFVYVLLFFLSSFTCDRTLLQEDYGFFRAISLWPPLVLIGIYATALSASMSSLIGASRILHALARDDLFGVILAPAKVVSRGGNPWAAVLYSWGLVQLVLLAGKLNTLAAVVTVFYLVAYAAVDLSCLSLEWASAPNFRPTFSLFSWHTCLLGVASCLLMMFLISPGAAGGSLLLMGLLAALLTARGGPSSWGYVSQALLFHQVRKYLLRLDVRKDHVKFWRPQLLLLVGNPRGALPLLRLANQLKKGGLYVLGHVTLGDLDSLPSDPVQPQYGAWLSLVDRAQVKAFVDLTLSPSVRQGAQHLLRISGLGGMKPNTLVLGFYDDAPPQDHFLTDPAFSEPADSTREGSSPALSTLFPPPRAPGSPRALNPQDYVATVADALKMNKNVVLARASGALPPERLSRGSGGTSQLHHVDVWPLNLLRPRGGPGYVDVCGLFLLQMATILGMVPAWHSARLRIFLCLGPREAPGAAEGRLRALLSQLRIRAEVQEVVWGEGAGAGEPEAEEEGDFVNSGRGDAEAEALARSANALVRAQQGRGTGGGPGGPEGGDAEGPITALTFLYLPRPPADPARYPRYLALLETLTRDLGPTLLVHGVTPVTCTDL [SLC12A9] | -0.0513 | 0.119

Source: the supplement of paper PMC5998384
